T1: CtaD with Strep-tag, subunit I homologue of complex IV (Corynebacterium glutamicum, UniProt Q79VD7 1-584)
T1 sequence (looked up): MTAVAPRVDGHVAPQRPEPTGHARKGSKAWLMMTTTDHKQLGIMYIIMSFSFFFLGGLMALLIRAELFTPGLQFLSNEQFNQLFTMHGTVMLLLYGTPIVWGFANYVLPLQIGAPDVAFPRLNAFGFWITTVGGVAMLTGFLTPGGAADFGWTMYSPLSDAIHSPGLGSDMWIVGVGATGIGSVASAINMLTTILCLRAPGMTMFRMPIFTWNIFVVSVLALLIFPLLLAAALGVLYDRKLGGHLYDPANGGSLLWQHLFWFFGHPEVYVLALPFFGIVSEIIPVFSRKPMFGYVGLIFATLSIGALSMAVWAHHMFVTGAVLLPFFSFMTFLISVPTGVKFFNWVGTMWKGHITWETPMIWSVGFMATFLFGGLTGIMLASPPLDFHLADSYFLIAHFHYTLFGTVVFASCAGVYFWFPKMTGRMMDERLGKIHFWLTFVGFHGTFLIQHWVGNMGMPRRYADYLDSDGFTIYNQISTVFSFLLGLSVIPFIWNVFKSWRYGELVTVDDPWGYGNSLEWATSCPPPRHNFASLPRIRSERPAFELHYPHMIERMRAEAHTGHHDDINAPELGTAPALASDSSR

B1: QcrB, cytochrome b subunit of complex III (natural protein, Corynebacterium glutamicum, UniProt Q79VE9 1-539, looked up)
chain: MSLATVGNNLDSRYTMASGIRRQINKVFPTHWSFMLGEIALYSFIVLLLTGVYLTLFFDPSITKVIYDGGYLPLNGVEMSRAYATALDISFEVRGGLFIRQMHHWAALLFVVSMLVHMLRIFFTGAFRRPREANWIIGVVLIILGMAEGFMGYSLPDDLLSGVGLRIMSAIIVGLPIIGTWMHWLIFGGDFPSDLMLDRFYIAHVLIIPAILLGLIAAHLALVWYQKHTQFPGAGRTENNVIGIRIMPLFAVKAVAFGLIVFGFLALLAGVTTINAIWNLGPYNPSQVSAGSQPDVYMLWTDGAARVMPAWELYLGNYTIPAVFWVAVMLGILVVLLVTYPFIERKFTGDDAHHNLLQRPRDVPVRTSLGVMALVFYILLTVSGGNDVYAMQFHVSLNAMTWIGRIGLIVGPAIAYFITYRLCIGLQRSDREVLEHGIETGIIKQMPNGAFIEVHQPLGPVDDHGHPIPLPYAGAAVPKQMNQLGYAEVETRGGFFGPDPEDIRAKAKEIEHANHIEEANTLRALNEANIERDKNEGKN
B2: Complex III (cyt. bc1 complex) protomer, QcrA-QcrB-QcrC (complex, Corynebacterium glutamicum)
chain 1: MSNNNDKQYTTQELNAMSNEDLARLGTELDDVTIAYRKERFPIANDPAEKRAARAVTFWLVLGIIGGLGFLATYIFWPWEYKAHGDEGLLAYTLYTPMLGITSGLCILSLGFAVVLYVKKFIPEEIAVQRRHDGPSEEVDRRTIVALLNDSWQTSTLGRRKLIMGLAGGGAVLAGLTIIAPMGGMIKNPWNPKEGPMDVQGDGTLWTSGWTLVENDVKVYLGRDTAAIAESHTDATGEHWSTTGVSRLVRMRPEDLAAASMETVFPLPAEMVNDGAEYDPAKDVYEHQMHSVHGPRNAVMLIRLRTADAEKVIEREGQESFHYGDYYAYSKICTHIGCPTSLYEAQTNRILCPCHQSQFDALHYGKPVFGPAARALPQLPITVDEEGYLIAAGNFIEPLGPAFWERKS
chain 2: B1 chain
chain 3: MAKPSAKKVKNRRKVRRTVAGALALTIGLSGAGILATAITPDAQVATAQRDDQALISEGKDLYDVACITCHGVNLQGVEDRGPSLVGVGEGAVYFQVHSGRMPILRNEAQAERKAPRYTEAQTLAIAAYVAANGGGPGLVYNEDGTLAMEELRGENYDGQITSADVARGGDLFRLNCASCHNFTGRGGALSSGKYAPNLDAANEQEIYQAMLTGPQNMPKFSDRQLSADEKKDIIAFIKSTKETPSPGGYSLGSLGPVAEGLFMWVFGILVLVAAAMWIGSRS
B3: AscA (P20, PRSAF1) (natural protein, Corynebacterium glutamicum, UniProt Q8NP09 1-147, looked up)
chain: MAGSSHTIEPEIYRGVSTLDEPSAAWGWHGLKRNTIQLAGWISVLFMLGYNFGNHKGHVETIWLLVITALLVIGLLIHLFEPKLSQVRTITSRNKPVGHVEPDWTYDQATLTGTWGNLTDSQLRSVNIEPSRVAHLRAADSAKELDN

Assays:
[1] = target: T1, CtaD with Strep-tag, subunit I …; assay: affinity purification with mass spectrometry
[2] = target: the molecule itself; assay: cryo-EM structure
[3] = target: B1; assay: cryo-EM structure
[4] = target: T1, CtaD with Strep-tag, subunit I …; assay: cryo-EM structure

B1
binding result [1]: binds

B2
stoichiometry N [2]: 2

B3
binding result [3]: binds
binding result [4]: binds

From publication doi:10.1101/2021.06.16.448340 (bioRxiv, 2021)
